Literature values, collected in PMC7761795.

Experiments:
UBE2N (Homo sapiens) [1] = target: UBE2N (Homo sapiens) (UniProt P61088); assay: SPR; settings: cited from earlier work
UBE2N (Homo sapiens) [2] = target: UBE2N (Homo sapiens) (UniProt P61088); assay: fluorescence polarization; settings: cited from earlier work

OTUB1, sequence (Q96FW1 2-271): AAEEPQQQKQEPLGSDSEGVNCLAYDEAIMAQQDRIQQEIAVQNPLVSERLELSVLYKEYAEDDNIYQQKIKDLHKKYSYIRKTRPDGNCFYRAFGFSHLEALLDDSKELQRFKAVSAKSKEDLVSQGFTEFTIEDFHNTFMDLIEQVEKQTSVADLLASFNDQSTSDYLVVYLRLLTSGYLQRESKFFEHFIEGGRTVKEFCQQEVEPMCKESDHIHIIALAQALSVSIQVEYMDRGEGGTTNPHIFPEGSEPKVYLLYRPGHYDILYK
UBE2N (Homo sapiens), sequence (P61088 whole entry): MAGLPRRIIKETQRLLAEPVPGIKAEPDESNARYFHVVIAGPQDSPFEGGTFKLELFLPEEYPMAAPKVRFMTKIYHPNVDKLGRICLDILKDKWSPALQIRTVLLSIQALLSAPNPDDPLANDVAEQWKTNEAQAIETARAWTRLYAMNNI

Substance: OTUB1 (from UniProt Q96FW1)
- Kd (UBE2N (Homo sapiens) [1]): 8.9 µM
- Kd (UBE2N (Homo sapiens) [2]): 7.04 µM
